Test results as given in PMC2062912.

Target: recombinant avidin (hen) (UniProt P02701)
Assay: SEC + other: electrophoresis; purified renatured rec-AV alone; conditions not given; details referred to Shin et al, 1997

**Q.** Which stoichiometry N does the source give for “recombinant avidin (from UniProt P02701 25-152) (natural protein)” here?
**A.** 4
